The numbers were not newly measured in paper PMC1775043, which cites them from elsewhere.

In this data set the target is hnRNP A2 (Homo sapiens) (UniProt P22626). The data set is described as follows: FCS.

As a reminder, the Kd is the constant that tells how readily two partners part at equilibrium. In the case of hnRNP A2 (from UniProt P22626), the Kd is 0.1 nM.
